In the supplement of paper PMC9732359:
± gives the uncertainty stated by the source.

Assay: protein stability index of a GFP-peptide fusion (yeast GPS) (PSI 1-4); higher = more stable; sorted into four equal gates, so the index is relative within each strain
Summary of the method: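 The protein stability index combines read frequencies across sorting gates, each weighted by its gate number and then summed. To obtain those frequencies, a pooled yeast library of GFP fusions to tiled 17-residue yeast protein peptides, on a plasmid also expressing Cherry, was grown to mid-log phase in leucine-free medium. The cells were sorted into four equal gates by GFP/Cherry ratio before plasmid amplification by PCR and Illumina sequencing.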

Sequence	protein stability index (doa10∆)	protein stability index (pdr5∆)	protein stability index (san1∆)	protein stability index (ubr1∆)
GQQTAQPQQSTIGGGLF [YGR119C/NUP57]	2.88 ± 0.072	3.19 ± 0.052	2.93 ± 0.053	3.28 ± 0.067
GQRTAYHSKRDASTPLR [RPB2]	3.32 ± 0.092	3.1 ± 0.11	3.12 ± 0.066	3.25 ± 0.071
GQSSSIQSSLMTNLTYF [YCS4]	2.86 ± 0.095	2.74 ± 0.071	2.56 ± 0.086	2.95 ± 0.065
GQSTILVGSEIYEKLKN [CDC53]	2.67 ± 0.14	3.12 ± 0.15	1.36 ± 0.21	1.96 ± 0.077
GSDEAYVKDARKDTVSR [RPC40]	3.23 ± 0.11	3.17 ± 0.12	3.13 ± 0.061	3.35 ± 0.13
GSELSSKIRKIHIQETQ [SIR3]	2.61 ± 0.069	2.54 ± 0.084	2.58 ± 0.075	2.68 ± 0.056
GSKQILKTEAANVLDPS [BRR2]	3.11 ± 0.075	2.99 ± 0.076	3 ± 0.056	3.19 ± 0.067
GSNKAQISIIDIWSISK [YML031W/NDC1]	2.55 ± 0.056	2.76 ± 0.054	2.88 ± 0.054	2.97 ± 0.048
GSQIKFIVVPDLLKNAP [SMD3]	2.05 ± 0.052	2.13 ± 0.047	1.8 ± 0.055	1.8 ± 0.038
GSSALADNKEDVKKPFS [YLR335W/NUP2]	3.48 ± 0.099	3.16 ± 0.067	3.06 ± 0.06	3.21 ± 0.062
GSSGGVIRMVVLTAAGV [PRE3]	2.33 ± 0.086	1.74 ± 0.075	2.64 ± 0.12	1.74 ± 0.049
GSSSIIYYDSYIHLAYS [SSN2]	2.56 ± 0.11	2.61 ± 0.12	2.7 ± 0.068	2.79 ± 0.28
GSTLNVSQMVAVVGQQI [RPO31]	3.15 ± 0.14	2.94 ± 0.1	2.84 ± 0.16	2.82 ± 0.15
GSYGSLLRFNGVERLIP [PRE4]	2 ± 0.064	2.44 ± 0.069	2.04 ± 0.12	2.22 ± 0.12
GTAGGNTFGSSSLFNNS [YJL041W/NSP1]	3.2 ± 0.073	3.09 ± 0.06	3.12 ± 0.055	3.21 ± 0.059
GTGKTLLAKAVANQTSA [RPT2]	1.96 ± 0.085	1.95 ± 0.1	2.72 ± 0.16	1.89 ± 0.092
GTIDKLQLELTIEDIAV [RPO31]	2.41 ± 0.064	2.79 ± 0.057	2.3 ± 0.053	2.54 ± 0.046
GTSLTIQHIAAAMVPFI [CDC53]	2.75 ± 0.05	2.91 ± 0.046	2.6 ± 0.066	3.03 ± 0.043
GTSQNYGTATADDADIE [MED1]	3.22 ± 0.071	3.29 ± 0.073	3.08 ± 0.058	3.24 ± 0.061
GTVGNSHKTTKEDTVSW [RPL11A]	3.07 ± 0.095	3.1 ± 0.095	3.22 ± 0.069	3.12 ± 0.18
GVFDPASYAKYLIDHIK [RPL22A]	2.73 ± 0.25		3.35 ± 0.16	
GVITVHNVFSKEQTIQL [RPN14]	2.57 ± 0.14	2.63 ± 0.19	2.95 ± 0.079	3.12 ± 0.14
GVLYQGNIQISEYNFLE [DIS3]		3.05 ± 0.16	2.6 ± 0.18	2.96 ± 0.28
GVYKRDNRTKSTTIKNI [SMC4]	1.62 ± 0.06	1.54 ± 0.062	1.33 ± 0.14	1.23 ± 0.075
GWFHSHPGYDCWLSNID [RRI1]	2.85 ± 0.075	3.05 ± 0.054	2.77 ± 0.074	2.81 ± 0.071
GWYHSGPKLRASDLKIN [RPN8]	1.57 ± 0.036	1.95 ± 0.035	1.59 ± 0.058	2.06 ± 0.035
GYENGMLAQWDLRSPEC [RPN14]	3.15 ± 0.29	3.6 ± 0.2		3.65 ± 0.16

Sequence	protein stability index (doa10∆)	protein stability index (pdr5∆)	protein stability index (san1∆)	protein stability index (ubr1∆)
GYGSNKKTKFLSPSGHK [RPL32]	2.4 ± 0.081	2.64 ± 0.09	2.62 ± 0.14	1.63 ± 0.092
GYYVGYKATATGPKQQE [SCL1]	3.1 ± 0.12	3.2 ± 0.088	3.02 ± 0.12	3.25 ± 0.14
HANSVVALTGLLIRSKT [YML031W/NDC1]	1.86 ± 0.04	2.18 ± 0.046	1.83 ± 0.052	2.35 ± 0.033
HDAPRGLFPFESYKPSV [SWI3]	3.31 ± 0.091	3.08 ± 0.11	3.15 ± 0.11	3.1 ± 0.079
HDELIDSIPRDVAYLLK [YGL172W/NUP49]	2.49 ± 0.12	2.82 ± 0.13	2.89 ± 0.055	3.05 ± 0.095
HDFLFNTIIRDGSKMLK [RPN14]	2.05 ± 0.11	2.55 ± 0.095	3.03 ± 0.15	1.38 ± 0.068
HDISKTETSNEDEDEDD [SNU114]	3.02 ± 0.058	3.03 ± 0.057	2.98 ± 0.039	3.08 ± 0.037
HDLLQIIHFHSHPEKRM [SSN3]	2.62 ± 0.053	2.71 ± 0.053	2.65 ± 0.046	2.79 ± 0.039
HEKIEDEDEDNDLDEDD [RPN4]	3.56 ± 0.2	3.44 ± 0.09	3.55 ± 0.086	3.45 ± 0.11
HELSRAELEELEEFEFK [SMD2]	3.26 ± 0.072	3.3 ± 0.071	3.42 ± 0.059	3.45 ± 0.055
HETLARSSEEINSDNQN [RPN3]	3.15 ± 0.26			3.16 ± 0.19
HFIQKLHTARKILVLTG [SIR2]	1.74 ± 0.14	2.36 ± 0.16	1.1 ± 0.15	1.66 ± 0.21
HGAFMDIIWLQRDLGLY [RRP6]	1.95 ± 0.047	1.49 ± 0.052	1.23 ± 0.069	1.46 ± 0.032
HGGSRYATKDGVAHLLN [QCR2]	3.13 ± 0.094	2.82 ± 0.055	3.3 ± 0.1	3.09 ± 0.072
HGKPTKGSSLASAASEA [SSN8]	1.95 ± 0.08	2.42 ± 0.068	2.19 ± 0.088	2.73 ± 0.032
HGMDFTTDKLRSMVRKW [RPS1A]	2.42 ± 0.1	2.55 ± 0.1	2.48 ± 0.19	2.9 ± 0.064
HGYFLQDKEKIDNLKDT [ITC1]	3.18 ± 0.072	3.41 ± 0.069	3.24 ± 0.057	3.42 ± 0.057
HHELIKVKHDSQPFIKF [SSN2]	3.14 ± 0.085	2.71 ± 0.099	2.86 ± 0.11	2.88 ± 0.06
HHIHHFEKKELQEKFLN [IRR1]	1.72 ± 0.035	1.61 ± 0.043	1.87 ± 0.068	1.56 ± 0.037
HHNDISNDSQSHFDYNT [YCG1]	1.89 ± 0.18	2.16 ± 0.17	2.49 ± 0.14	2.39 ± 0.16
HIAHTLPEKVNFRTMQQ [SSN2]	2.78 ± 0.079	2.92 ± 0.072	2.83 ± 0.083	2.75 ± 0.071
HINKKSQLDLFLRTMKL [GRR1]	1.94 ± 0.067	2.33 ± 0.076	1.21 ± 0.11	2.02 ± 0.1
HKQELQDLILDLKKKLN [SMC4]	2.55 ± 0.078	2.75 ± 0.16	2.31 ± 0.062	1.75 ± 0.058
HKQGSSYVAVLGMGKAV [POP7]	1.69 ± 0.077	1.71 ± 0.053	1.66 ± 0.082	1.86 ± 0.062
HKSPNLSLMLESPNYCN [SRB4]	2.28 ± 0.078	2.65 ± 0.1	2.64 ± 0.095	2.71 ± 0.06
HLGERAASVIGMLVALG [RPC82]	2.05 ± 0.23	1.71 ± 0.1	1.75 ± 0.21	2.04 ± 0.067
HLLVQLQKNDVYAFKAK [REC8]	3.15 ± 0.075	2.99 ± 0.064	2.73 ± 0.059	3.15 ± 0.074
